Assays:
[1] = biological target: T1, yeast ENIP1 protein fragment (composed of amino acids 170-469) (S. cerevisiae, UniProt Q99207 170-469); experiment: yeast two-hybrid
T1 construct: Truncation construct used in the yeast two-hybrid system
T1 sequence: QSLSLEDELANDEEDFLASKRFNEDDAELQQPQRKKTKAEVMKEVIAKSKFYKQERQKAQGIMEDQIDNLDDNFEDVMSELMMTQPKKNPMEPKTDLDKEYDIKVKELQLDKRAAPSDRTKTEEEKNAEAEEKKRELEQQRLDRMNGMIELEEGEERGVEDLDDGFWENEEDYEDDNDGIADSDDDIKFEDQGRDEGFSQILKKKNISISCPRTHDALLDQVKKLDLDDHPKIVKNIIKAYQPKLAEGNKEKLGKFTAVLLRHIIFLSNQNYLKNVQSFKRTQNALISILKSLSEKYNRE

[2] = biological target: T2, yeast Emg1-Nuclear Interacting Protein 1 (ENIP1), S. cerevisiae gene locus YDL148c (S. cerevisiae, UniProt Q99207 1-810, limits assumed); experiment: yeast two-hybrid, cell growth assay on selective (no histidine) medium
T2 construct: 810 amino acids; also called yeast ENIP1; yENIP
T2 sequence: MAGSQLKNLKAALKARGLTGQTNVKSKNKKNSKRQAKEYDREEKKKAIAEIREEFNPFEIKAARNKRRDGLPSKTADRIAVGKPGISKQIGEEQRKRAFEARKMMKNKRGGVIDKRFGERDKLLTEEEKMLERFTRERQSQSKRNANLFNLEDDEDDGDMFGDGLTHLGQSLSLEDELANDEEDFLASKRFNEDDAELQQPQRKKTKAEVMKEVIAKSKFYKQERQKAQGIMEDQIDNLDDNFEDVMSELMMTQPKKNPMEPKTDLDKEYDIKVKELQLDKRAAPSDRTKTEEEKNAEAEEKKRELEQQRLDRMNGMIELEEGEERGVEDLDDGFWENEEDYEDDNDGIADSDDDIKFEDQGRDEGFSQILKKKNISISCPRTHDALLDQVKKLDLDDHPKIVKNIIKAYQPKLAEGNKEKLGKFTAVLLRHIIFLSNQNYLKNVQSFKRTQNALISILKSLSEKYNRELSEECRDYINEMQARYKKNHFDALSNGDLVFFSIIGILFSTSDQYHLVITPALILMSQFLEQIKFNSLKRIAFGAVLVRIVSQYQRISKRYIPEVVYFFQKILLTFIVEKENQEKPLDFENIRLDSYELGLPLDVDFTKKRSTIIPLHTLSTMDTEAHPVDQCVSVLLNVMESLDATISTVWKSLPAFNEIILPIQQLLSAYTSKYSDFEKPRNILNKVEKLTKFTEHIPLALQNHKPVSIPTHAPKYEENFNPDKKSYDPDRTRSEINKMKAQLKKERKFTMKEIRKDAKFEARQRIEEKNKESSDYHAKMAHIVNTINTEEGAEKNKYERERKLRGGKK

B1: mouse Emg1 protein (other)
chain: MSAASGGFQPRERRFSVQEQDWETTPPKKLRLGAGSKCGGRRLIVVLEGASLETVKVGKTYELLNCDRHKSMLLKNGRDPGEVRPDITHQSLLMLMDSPLNRAGLLQVYIHTQKNVLIEVNPQTRIPRTFDRFCGLMVQLLHKLSVRAADGPQKLLKVIKNPVSDHFPVGCMKIGTSFSVEDISDIRELVPSSDPVVFVVGAFAHGKVSVEYTEKMVSISNYPLSAALTCAKVTTAFEEVWGVI
notes: Used as a two-hybrid fusion; also called mEmg1; murine Emg1
B1: binds [1]; binds [2].
